# In PMC11210195:
# Legend:
# mAb1 WT-AAA (human) = test: mass photometry; 200 nM mAb1 Fc variant pre-incubated with 4000 nM PRYSPRY domain, analysed at a 1:250 dilution; PBS pH 7.4, room temperature
# [1] = target: Fc WT (Fc-only variant, human IgG1 core hinge-CH2-CH3, wild type) (human); test: SPR; Biacore T200, C1 chip, 25 °C, HBS-EP+ (10 mM HEPES, 150 mM NaCl, 3 mM EDTA, 0.05% P20, pH 7.4); antibody Fc variants captured via anti-human Fab-kappa nanobody (about 60 RU), Fc only variants amine-coupled (60-80 RU), cytokine-Fc fusions captured via anti-PGLALA F(ab')2 (35-40 RU); PRYSPRY domain injected in five two-fold dilutions from 500, 1000 or 2000 nM; global fit, Langmuir 1:1, affinity mode
# Ustekinumab (human) = test: as above
# [2] = target: anti-AAV2 capsid antibody A20 WT (bivalent, human IgG1 Fc WT) (human); test: as above
# [3] = target: mAb1 HH (human IgG1, T307H, N434H) (human); test: as above
# [4] = target: mAb1 HH-AAA (asymmetrical human IgG1, one Fc heavy chain HH, the other AAA) (human); test: as above
# [5] = target: mAb1 WT-AAA (asymmetrical human IgG1, one Fc heavy chain H310A, H433A, Y436A) (human); test: as above
# [6] = target: mAb1 YTE-AAA (asymmetrical human IgG1, one Fc heavy chain YTE, the other AAA) (human); test: as above
# [7] = target: mAb2 WT KiH (human IgG1, knob-into-hole, Fc wild type at the TRIM21 site) (human); test: as above
# [8] = target: mAb2 WT-AAA (asymmetrical human IgG1, one Fc heavy chain H310A, H433A, Y436A) (human); test: as above
# anti-AAV2 capsid antibody A20 WT (bivalent, human IgG1 Fc WT) (human), sequence (heavy, as listed by the source, chain 1 of 2): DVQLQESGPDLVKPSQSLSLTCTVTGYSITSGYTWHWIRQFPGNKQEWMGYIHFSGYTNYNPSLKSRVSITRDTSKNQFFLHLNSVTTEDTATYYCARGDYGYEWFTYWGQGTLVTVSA
# anti-AAV2 capsid antibody A20 WT (bivalent, human IgG1 Fc WT) (human), sequence (light, as listed by the source, chain 2 of 2): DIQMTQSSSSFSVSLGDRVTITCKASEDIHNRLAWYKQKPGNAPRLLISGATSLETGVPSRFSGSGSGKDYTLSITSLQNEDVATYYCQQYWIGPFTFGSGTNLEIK
# Ustekinumab (human), sequence (heavy, as listed by the source, chain 1 of 2): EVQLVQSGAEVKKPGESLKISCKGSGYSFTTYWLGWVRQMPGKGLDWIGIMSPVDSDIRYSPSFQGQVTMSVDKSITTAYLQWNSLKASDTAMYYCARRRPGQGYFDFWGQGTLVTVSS
# Ustekinumab (human), sequence (light, as listed by the source, chain 2 of 2): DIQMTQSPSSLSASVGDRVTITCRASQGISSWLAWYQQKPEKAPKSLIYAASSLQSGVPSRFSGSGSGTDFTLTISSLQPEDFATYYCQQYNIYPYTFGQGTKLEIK
# TRIM21 PRYSPRY domain, sequence (P19474 277-475): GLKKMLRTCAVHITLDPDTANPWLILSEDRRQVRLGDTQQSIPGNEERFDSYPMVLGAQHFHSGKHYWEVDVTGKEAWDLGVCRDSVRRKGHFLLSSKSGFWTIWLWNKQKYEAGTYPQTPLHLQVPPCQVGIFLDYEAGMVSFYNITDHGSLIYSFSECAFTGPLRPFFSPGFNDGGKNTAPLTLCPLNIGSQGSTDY
substance,measurement,setting,value
TRIM21 PRYSPRY domain (from UniProt P19474-1 277-475) (domain or fragment),stoichiometry N,mAb1 WT-AAA (human),1
same,Kd,[1],65.1 nM
same,koff,[1],0.102 s⁻¹
same,kon,[1],1.57e+06 M⁻¹ s⁻¹
same,Kd,Ustekinumab (human),42.3 nM
same,koff,Ustekinumab (human),0.104 s⁻¹
same,kon,Ustekinumab (human),2.46e+06 M⁻¹ s⁻¹
same,Kd,[2],45.6 nM
same,koff,[2],0.0876 s⁻¹
same,kon,[2],1.92e+06 M⁻¹ s⁻¹
same,Kd,[3],101 nM
same,koff,[3],0.477 s⁻¹
same,kon,[3],4.74e+06 M⁻¹ s⁻¹
same,Kd,[4],120 nM
same,koff,[4],0.434 s⁻¹
same,kon,[4],3.63e+06 M⁻¹ s⁻¹
same,kon,[5],2.66e+06 M⁻¹ s⁻¹
same,Kd,[6],92.6 nM
same,koff,[6],0.189 s⁻¹
same,kon,[6],2.04e+06 M⁻¹ s⁻¹
same,Kd,[7],49.6 nM
same,koff,[7],0.118 s⁻¹
same,kon,[7],2.38e+06 M⁻¹ s⁻¹
same,Kd,[8],38.5 nM
same,koff,[8],0.0901 s⁻¹
same,kon,[8],2.34e+06 M⁻¹ s⁻¹
